# Measured values: PMC4902571
# Experiments:
# [1] = molecular target: EGFR-EGFP with deletion of the dimerization arm, residues 242 to 259 (human) (UniProt P00533); experiment: single-molecule stepwise photobleaching (TIRF microscopy); EGFP fusions on the membrane of live Xenopus oocytes, without EGF; ~1 to ~5 molecules per um^2; room temperature; 20 Hz; 3% two-step baseline (Claudin-16) subtracted
# [2] = molecular target: Src13-GCN4-EGFRk: c-Src membrane localization sequence, coiled-coil segment of GCN4 joined to the N-terminus of the kinase domain of EGFR, EGFP or mCherry (UniProt P00533); experiment: PIE-FCCS (pulsed-interleaved excitation fluorescence cross-correlation spectroscopy); control constructs with the c-Src membrane localization sequence, EGFP and mCherry fusions coexpressed; data collected previously on the same instrument and reproduced here; median fraction correlated fc
# [3] = molecular target: Src13-GCN4: c-Src membrane localization sequence, coiled-coil segment of GCN4, EGFP or mCherry; experiment: as above
substance,measurement,setting,value
"EGFR-EGFP with deletion of the dimerization arm, residues 242 to 259 (from UniProt P00533 25-1210) (receptor)",fraction of two-step photobleaching events (baseline subtracted),[1],9%
"Src13-GCN4-EGFRk: c-Src membrane localization sequence, coiled-coil segment of GCN4 joined to the N-terminus of the kinase domain of EGFR, EGFP or mCherry (from UniProt P00533 712-979)",fraction correlated fc (median),[2],0.23
"Src13-GCN4: c-Src membrane localization sequence, coiled-coil segment of GCN4, EGFP or mCherry",fraction correlated fc (median),[3],0.13
